Experiment: soluble on expression in E. coli; label from the status in PepcDB or PDB records

Row | Sequence | soluble on expression in E. coli
1 | MHRASLICRLASPSRINAIRNASSGKSHISASTLVQHRNQSVAAAVKHEPFLNGSSSIYIEQMYEAWLQDPSSVHTSWDAYFRNVEAGAGPGQAFQAPPATAYAGALGVSPAAAQVTTSSAPATRLDTNASVQSISDHLKIQLLIRSYQTRGHNIADLDPLGINSADLDDTIPPELELSFYGLGERDLDREFLLPPTTFISEKKSLTLREILQRLKDIYCTSTGVEYMHLNNLEQQDWIRRRFEAPRVTELSHDQKKVLFKRLIRSTKFEEFLAKKWPSEKRFGLEGCEVLIPAMKQVIDSSSTLGVDSFVIGMPHRGRLNVLANVCRQPLATILSQFSTLEPADEGSGDVKYHLGVCIERLNRQSQKNVKIAVVANPSHLEAVDPVVMGKVRAEAFYAGDEKCDRTMAILLHGDAAFAGQGVVLETFNLDDLPSYTTHGAIHIVVNNQIGFTTDPRSSRSSPYCTDVGRVVGCPIFHVNVDDPEAVMHVCNVAADWRKTFKKDVIVDLVCYRRHGHNELDEPMFTQPLMYQRIKQTKTALEKYQEKILNEGVANEQYVKEELTKYGSILEDAYENAQKVTYVRNRDWLDSPWDDFFKKRDPLKLPSTGIEQENIEQIIGKFSQYPEGFNLHRGLERTLKGRQQMLKDNSLDWACGEALAFGSLLKEGIHVRLSGQDVQRGTFSHRHHVLHDQKVDQKIYNPLNDLSEGQGEYTVCNSSLSEYAVLGFELGYSMVDPNSLVIWEAQFGDFSNTAQCIIDQFISSGQSKWIRQSGLVMLLPHGYEGMGPEHSSARPERFLQMCNEDDEIDLEKIAFEGTFEAQQLHDTNWIVANCTTPANIYHLLRRQVTMPFRKPAVVFSPKSLLRHPMARSPVEDFQSGSNFQRVIPETGAPSQNPPDVKRVVFCTGKVYYDMVAARKHVGKENDVALVRVEQLSPFPYDLVQQECRKYQGAEILWAQEEHKNMGAWSFVQPRINSLLSIDGRATKYAGRLPSSSPATGNKFTHMQEQKEMMSKVFGVPKSKLEGFKA | not soluble
2 | SYFSIFSPSFTSLRHDGKPVQCSGLDMQFDPSEPGFYDDPDLSYSIEKPITKWDEKRNQWFESHPSFKPGSENRIVMVTGSQSSPCKNPIGDHLLLRCFKNKVDYARIHGHDIFYSNSLLHPKMNSYWAKLPVVKAAMLAHPEAEWIWWVDSDAIFTDMEFKPPLHRYRQHNLVVHGWPNIIYEKQSWTALNAGVFLIRNCQWSMDLIDTWKSMGPVSPDYKKWGPIQRSIFKDKLFPESDDQTALIYLLYKHKELYYPKIYLEAEYYLQGYWIGVFGDFANVTERYLEMEREDDTLRRRHAEKVSERYGAFREERFLKGEFGGRGSRRRAFITHFTGCQPCSGDHNPSYDGDTCWNEMTRALNFADNQVMRVYGYVHSDLSKTSPLQPLPFDYPNEAW | soluble
3 | MGILDHPSSSSGIQSGGGTFGIDWAKWFPPVTSRSFLSHYLPASGALSHTLYTVHLFSPNIISSLFPTGDLAVSNTILFNANVGLGFYVYFRRHLHRVNPWERVEFSVLSSTLFNFGSLLAAVLIKALIPAKSPTWLKSLTATVLSGYLLSRAAKYMGILDHRSSRGSVSPARSVLSRRQTASRSSHAAEVTPPPASYAPETPRSVASTSYYSPSELHLDTTSSVQLETPPQSHESGSFMPMTPSATEHSSSEFGQDLEDAGDRHENYRYLHSYALNNLNHSRPKKETILRRTTMNQKNQLATPQKQLRRSSETMAPMCFVTPEPSWKELDVGVYTPPPSRMDFTPQASKKLTKSSKSVKIIQKKSRRIPNEKDDFDRFLDAVQWHAPLILVPVAFGCWITGSVPILSPTLRFIFA | not soluble
4 | MSLFSISNLSFIGFLKRIVFSSDSLPGKWEHRKFRFMYILRCSINPVVSIRYYYELRSLPCIEDILAIHPTLPARIHRPYLHKGGRAWTRGQYILEHYRFVQNLPEKYSKFLFPQKSVSLVQFIGKDGENFDIQCSPSGFDREGELMLSLFYNKTVIARLTYSVILTQNGHIAFIGGLQGAPKNTGPDVIRCATRACYGLFPKRIIFEAFCALMKACNVSECLAVSEHSHVFRQLKYWYQKRKTFVAVYSDFWDSVPGKTCGDWYKLPTQVIRKPLTDIPIKKRSDYRKQYALLDYIHETTIRSLDAYPVHSKHQNSNEGHHHHHH | not soluble
5 | MAHHHHHHMSSTASPNAALLAEINDLKVKLAEKEALLQPEGVVSKKSKKKSQANMIEKEPVQGCRDFPPEDMRVRRHLFGVFHETARKFGFEEYDAPVLESEELYIRKAGEEITDQMFNFVTKGGHRVTLRPEMTPSLVRLQLAKGRSLLLPAKWYSIPQCWRYEAISRGRRREHYQWNMDIVGVKSVAAEVELVCAACAAMESLGLTAQDVGVKVNSRKLLQCALAGAGVPDSLFAPVCVIVDKMEKLPEEQIRAELEDLALDGQQADDIIRTLSLRSVDDFDKNLFDKNGALSELAEFFSQMQMYGYGDWIQFDASVVRGLAYYTGIVFEAFDRSGEFRAIYGGGRYDNLFTLYGSPQPISCVGFGFGDCVIIELLKKKKLINSLPHKVDDVVIPFNESQRGTALKVLKQLRDKGRSADIIMDSKKVAQTFSYADRIGADRAVLIAPDETEKGMARVKMLREGQRGEDDRGDLVPFEDL | soluble
6 | MGSDKIHHHHHHAASVTPSSALLKKSNSYYRSHARALGKKYKLAFDAQSALKKNGKAVIYVNTKDKTLNQSVKLAMAYWNKKLGKTEFTQGSKKNHTLTFGVSTAAASKSDQSDAWWTPMTKKLDVRWSYYTAEKQNIGISMTNQLNKAFYKQYADTIETKAKANLAAKGITTSDKDYLSPFNREASNVETSLPAYTTLKKDVCLVKSTLANEGRKYEYASTIAHEMGHVMGLNHSPNKQDLMYFESGNNNVYSFKKVKAGLSKYNPITTTDKNRAKLALKIYVAAH | not soluble
7 | MSLKNGKIANIGLINYVDLGKIIIKAKEEGKTAVDFKAIEDIMPWDEFVSSINETSEITRPKEYNSLDLIAEKYSTLRKYTPRLLKILEFKASKKGEPVLKAMETIKELNANTKRKVPKGAPLDFVTNQWEKYVYDQEGNIDKKYYELAVFTELKNAVRSGDISIVGSKQHKPFEEYLITDSEWEKYKAENTDFKVSLDAEEYLKARLDLLNNKLKYVSDNIKKLKGVSIEDNKFVLSRLEKAVPDEAKELATKLYSLIPRVNLSDIIIDISKFTAFDNNLIHASTNKEPKDNERSCITASLMALGTNIGLKKMEQAVKGISYKQMSNVVNWRMSDDNMEKAMAAITNYHHRQPYAVHWGDGSTSSSDGVRVKSAVEALNASYNPHYGLEKGVTMYSAVSDQYSRFGVGIINTNSRDAIHIIDILLNHRTELEIEEHYTDTAGYTDQVFGLTHLLGFRFAPRLRDISDCKLYCIEGKEDFRNIQSVIKGKINTKIIKENYDDILKPVSSIKEGKVSGSLIMGKLGSYSRQNSLAKALTELGKIEKTIFILDYLSDEDFRRKIQIGLNKGEAMNALARAIFFGKYGMFHEKDIQGQLQRATALSIIINSITLWNTMYLPKAVEKLKEKEGVDESLLRHVSPLGWEHINFIGQYNLDDSSDYNLIDNMRPLREILQEGHHHHHH | not soluble
8 | MTLLNLMIMQDYGISVCLTLTPYLQHELFSAMKSYFSKYILPVSLFTLPLSLSPSVSAFTLPEAWRAAQQHSADFQASHYQRDAVRARQQQAKAAFLPHVSANASYQRQPPSISSTRETQGWSVQVGQTLFDAAKFAQYRQSRFDTQAAEQRFDAAREELLLKVAESYFNVLLSRDTVAAHAAEKEAYAQQVRQAQALFNKGAATALDIHEAKAGYDNALAQEIAVLAEKQTYENQLNDYTDLDSKQIEAIDTANLLARYLPKLERYSLDEWQRIALSNNHEYRMQQLALQSSGQALRAAQNSRYPTVSAHVGYQNNLYTSSAQNNDYHYRGKGMSVGVQLNLPLYTGGELSGKIHEAEAQYGAAEAQLTATERHIKLAVRQAYTESGAARYQIMAQERVLESSRLKLKSTETGQQYGIRNRLEVIRARQEVAQAEQKLAQARYKFMLAYLRLVKESGLGLETVFAE | not soluble
9 | MIKEAIKQLAQDIGISKIGFTTADDFDYLEKSLRASVEEGRSSGFEHKNIEERIKPRLSLASAKTIISIAIAYPHKLPVKPPKTQYKRGKITPNSWGLDYHYVLEEKLQRLAQGIESLCQDFPLEHKIMVDTGALVDTAVAQRSGIGFIGKNGLVISKEFGSYMYLGELITNLEIEPDSPVDYDCGDCHRCLDACPTSCLLGDGSMNAKRCLSFQTQDKGMMDLEFRKKIKTVIYGCDICQICCPYNKGIHNPLASEIDPELAEPELLPFLELSNSQFKKKFGMIAGSWRGKNTLQRNAIIALANGHDKSALVKLMEIIDKNNNPIHTATAIWALGEIVKKPTQELYDFILSIHSDNDAIIKERTALLNRWQF | not soluble
10 | MSLSELIFYTNPMSRGRIARWMLEEVGIPYKTEILGFETSMKSPAYRLINPMAKVPAIKHGDTIVTEAAAICAYLADAFPGANLAPTPKARGLYYRWMFFAAGPLEMAASMKAMGFEVPKEKLRMAGCGSYADVMNTLERAVSENRFIAGDLFTAADVYVGAHVGWGLHFGTIEKRPAFTDYMAHLTDRPAFKRAAQLDEEAAKELQAAGEGHHHHHH | soluble
11 | MGSDKIHHHHHHVSKIGIPRTLAYFIYFPLWKTFFEELGHEVVLSPATSKAILDRGVKEAVNDACIPIKLYHGHAAALAGKVDYIFCPRLVSVRSHGDFGTETFCPKFLGLPDMLRLAMDDLPEIIDVRVDLKQGKDGLWQLSQEIGKGLGNSREEIKRAFNRAREQQRQYNRLLYQEMLPLEALKIIEQKNPIPKKEKSNENYDLQVAVVGYPYLLYDAYINAGLLAILEKEKVKVYTQDIISDRKMNQQAKTLPKSTFWYFSNRVIYGALHFMQRPEIEGVIHLTAFACGPDSMVDRLLEIESRRRGNRPYLSIAVDEHTGEAGVRTRIEAFVDMLRYRRERK | not soluble
12 | AHHHHHHGSLSERELERYDRQIMIFGIEGQEKLKKANVAVVGVGGLGSPVAYYLAAAGVGTILLIDEQTPELSNLNRQILHWEEDIEKNPKPISAKWKLERFNSNIKIETFVGRLSEENIDEVLSGVDVIVDCLDNFETRYLLDDFAHKKGIPLVHGAVEGFYGQVTTIIPGKTKRLREIFPKVKKKGKFPIVGATAGVIGTIQASEVIKLITGYGEPLANKLLIIDLANNTYEIIEI | soluble
13 | MPDEIYLFTPKGKIFALPKNSTALDFAYAVHTDIGNHAVTSRVDKQLMPLRTKLSSGQTVEIITARSALPKPQWLEHHHHHH | not soluble
14 | MGSDKIHHHHHHMHMQSPIQRRKSRQIHVGHVPVGGDAPIAVQSMTNTDTLDVDATVAQIRQLEAAGADIVRVSVPTMDAAEAFGQIKRQVSVPLVADIHFDYKIALRVAELGVDCLRINPGNIGREDRVRAVVDAARHHGIPIRIGVNAGSLEKDLQKKYGEPTPEALVESAMRHIEHLDRLDFQDFKVSVKASDVFMAVAAYRQLAQRIDQPLHLGITEAGGLRSGTVKSSIGLGLLLMEGIGDTIRVSLAADPVEEIKVGYDMLKSLRLRSKGINFIACPSCSRQNFDVIGTMNALEERLDDIMTPLDVSVIGCVVNGPGEAKESDIGLTGGDPANLVYIDGKPASKLRNDHLVDDLEALIRDKVREKEARERDTIAREA | not soluble
15 | MISDIRKDAEVRMDKCVEAFKTQISKIRTGRASPSLLDGIVVEYYGTPTPLRQLASVTVEDSRTLKINVFDRSMSPAVEKAIMASDLGLNPNSAGSDIRVPLPPLTEERRKDLTKIVRGEAEQARVAVRNVRRDANDKVKALLKDKEISEDDDRRSQDDVQKLTDAAIKKIEAALADKEAELMQF | soluble
16 | MGSDKIHHHHHHLDPFASPQNLDKELRSLLAQASSNLCDWFAESASQGPMPYSFELPEVYPAKEGVSNDVLLSELQLLMDGSYRPSHPGSLAHLDPPPLSASIAGELICAGLNNNLLADELSPSLSSLERNLCKWFCHKLGLGDLSGGVAASGGSLSNLMALVMARNNSGLETDPKAVFFASHDCHVSFSKAFRIMGLKQESLQKVSTDENGALNISSLRTSLNKIKSQGKKCFAVVATAGTTVRGAIDPLSEIAKFCKKENVWFHVDGSIGGIYGLSEMTSEIVQGLGFADSLTINPQKLLGIPKTSSLLLVANKNHLSSTFSTGLPYVEPISGNDFHGGELGIQGTRSAETLKLWIGLRQLGEEGIEKILLGSIKRRCYLESIIDRSKFKIISGPLHLLAFTPINYSSSQSSDWSLKTRNSLLANKFMLSRPMYGHRYYLKAVMGNPNTKFDDLKMLANLINHSIS | not soluble
